In the supplement of paper PMC10567573 one finds protein stability index data, which are given here for 72 sequences.

This series in a line: protein stability index of a GFP-peptide fusion (GPS, HEK-293T) (PSI 1-6); higher = more stable.
Where [1] appears, read: treatment: DMSO, c terminus: a fixed tail appended.
Where [2] appears, read: treatment: MLN4924 1 uM, 8 h, c terminus: a fixed tail appended.

± gives the standard deviation.
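Note: 24-mer peptide tiles fused after GFP, lentivirally expressed, FACS-sorted into six equal bins by GFP/DsRed ratio, decoded by Illumina sequencing, PSI is the read-weighted mean bin number.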

With AAEEPGVRGLLASLFAFKSFRENW [C2CD2L], the protein stability index under setting [1] worked out at 2.44 ± 0.19 and the protein stability index under setting [2] is 2.65 ± 0.032.
The like results for AALIYFAISITAIAKYSDGASKAA [CMTM3] were, in that order, 3.49 ± 0.37 and 3.43 ± 0.62.
As to AANHWVLPAAEFHGLWDSLVYDVE [TRIP13], the protein stability index is, setting by setting: under setting [1], 2.62 ± 0.31; under setting [2], 2.66 ± 0.22.
For AAQFTDFLIPMLEMVPEKRASAGE [SRPK2], in that order: 3.6 ± 0.29 and 3.97 ± 0.29.
For AASLVTMGIVNLNIHMNFTHICRS [SLC2A12], the protein stability index runs as follows: under setting [1], 3.46 ± 0.27; under setting [2], 3.16 ± 0.21.
Take AAVPDEIPPLEGDEDASRMEEVD [HSP90AB1]: the protein stability index by setting is: (treatment: DMSO, c terminus: native) 5.62 ± 0.27; (treatment: MLN4924 1 uM, 8 h, c terminus: native) 5.68 ± 0.21.
AAWLTLWVFGTSFLPFLLCAVLLS [FADS1] gave a protein stability index under setting [1] of 2.97 ± 0.53 and a protein stability index under setting [2] of 3.15 ± 0.69.
Take ACDNGLNVRGGKPDDITVLLSIVA [PPTC7]: the protein stability index runs as follows: under setting [1], 2.32 ± 0.59; under setting [2], 2.16 ± 0.45.
As for ADFGRLVNLQHLDLLNNKLVTLPV [LRRC59], the protein stability index under setting [1] was found to be 2.3 ± 0.2 and the protein stability index under setting [2] was 2.37 ± 0.21.
With ADWFMSLGVGLLTFASLETVGIYF [TMEM40], the protein stability index by setting is: under setting [1], 3.37 ± 0.22; under setting [2], 3.04 ± 0.52.
For AEDAVYGRDGYDYDGYRLRVEFPR [SRSF1], in that order: 3.37 ± 0.2 and 3.44 ± 0.37.
With AEIQEACCEFLKRQLDPSNCLGIR [KLHL20], the protein stability index under setting [1] came out at 2.52 ± 0.24 and the protein stability index under setting [2] was 2.67 ± 0.34.
For AFARQAAQEPSAVPRAGPLTVNTE [FOXJ1], in that order: 4.54 ± 0.17 and 4.49 ± 0.24.
AFVLSSNSLKHCTELELFKATCRW [KLHL13] displayed a protein stability index under setting [1] of 2.38 ± 0.55 and a protein stability index under setting [2] of 2.23 ± 0.52.
The like results for AGAEPLPRNGDQWHEIRQGRLPRI [WEE1] were, in that order, 3.86 ± 0.47 and 4.24 ± 0.4.
Consider AGEGLVRSANGFPYREDEEGAFGE [MAP2], for which the protein stability index runs as follows: under setting [1], 5.27 ± 0.18; under setting [2], 5.24 ± 0.38.
For AGFTGSGPIQLWQFLLELLSDKSC [ETS2], in that order: 2.27 ± 0.19 and 2.12 ± 0.41.
Regarding AGVSLSTLEELLPPNTRVLRVLPN [PYCR3], the protein stability index by setting is: under setting [1], 2.79 ± 0.26; under setting [2], 2.63 ± 0.23.
In turn, AHDNSEELERARELKEKEATLCLE [ANKRD44] returned a protein stability index under setting [1] of 5.58 ± 0.21 and a protein stability index under setting [2] of 5.45 ± 0.26.
Consider AHSSDVLENVFSSLTDDKYDVAMN [GOLPH3L], for which the protein stability index reads like this: under setting [1], 4.74 ± 0.21; under setting [2], 4.7 ± 0.3.
As to AIQQMGGQWLGGRQIRTNWATRKP [TIA1], the protein stability index by setting is: under setting [1], 2.8 ± 0.29; under setting [2], 3.21 ± 0.44.
Sequence AIQYALNIAFSEAEGARPLRENVP [MATN2] yielded a protein stability index under setting [1] of 2.36 ± 0.21 and a protein stability index under setting [2] of 2.08 ± 0.23.
As for AKAADSPTRNDLESGLGHFSLRVH, the protein stability index by setting is: under setting [1], 3.19 ± 0.38; under setting [2], 3.42 ± 0.48.
For AKLVPMGFTTATEFHQRRSEIIQI [RAD51], in that order: 2.56 ± 0.6 and 1.98 ± 0.12.
On to AKMGATKEEREDTPIQLQELLALE [TCAP], for which the protein stability index reads like this: under setting [1], 5.28 ± 0.24; under setting [2], 5.15 ± 0.27.
With AKYCGHLYGLGSGSSYVQNGTGNA [CNOT7], the protein stability index by setting is: under setting [1], 2.8 ± 0.3; under setting [2], 2.78 ± 0.28.
In turn, ALEAAVHVQKLSQECLKQLAIKKQ [TRIM14] yielded a protein stability index under setting [1] of 3.91 ± 0.16 and a protein stability index under setting [2] of 3.54 ± 0.52.
As for ALNSMLRRRFREKKKAIQEEEERD [YJU2B], the protein stability index by setting is: under setting [1], 3.57 ± 0.12; under setting [2], 3.59 ± 0.1.
AMEKFREDEGFLREEERPLPRRDF [KCNA3]: the protein stability index runs as follows: under setting [1], 4.74 ± 0.23; under setting [2], 4.74 ± 0.17.
AMPMQDIKMILKMVQLDSIEDLEV [PRAME] showed a protein stability index under setting [1] of 2.25 ± 0.22 and a protein stability index under setting [2] of 2.25 ± 0.59.
In the case of APEAKDGSSFSGRVFRVTFLMLAV [APMAP], the protein stability index by setting is: under setting [1], 3.47 ± 0.77; under setting [2], 2.77 ± 0.75.
The like results for APIDWIEEYTTGMADCILVNSQFT [ALG2] were, in that order, 2.64 ± 0.25 and 2.81 ± 0.49.
For AQEQLRPQTPEPVEGRKHVDVQTE [RSPH3], in that order: 5.41 ± 0.31 and 5.34 ± 0.24.
As to ARDTVQVELIPEKKGLFLKHVEYE [SNX8], the protein stability index runs as follows: under setting [1], 3.65 ± 0.39; under setting [2], 3.73 ± 0.26.
As to ARLKRSQSFGVASASSIKQILLEW [SMTNL2], the protein stability index was 2.33 ± 0.28 under setting [1] and 2.29 ± 0.17 under setting [2].
As for ARRRQSAGPWPRPKGSLSMGPAPR [RASAL3], the protein stability index is 3.81 ± 0.25 under setting [1] and 4.03 ± 0.33 under setting [2].
The like results for ARYTMPSSLLAPAKHLIASMLSKN [PLK2] were, in that order, 2.51 ± 0.39 and 2.91 ± 0.72.
For ASASKFPSSGPVTPQPTALTFAKS [AUP1], in that order: 4.33 ± 0.17 and 4.36 ± 0.38.
The like results for ASGNATQTESGSEEVSSTVHIETF [C10orf62] were, in that order, 5.11 ± 0.21 and 5.27 ± 0.2.
For the sequence ASSLNGGNIKGIEGHSPGNLPKFC [ZC2HC1A], the protein stability index runs as follows: under setting [1], 3.56 ± 0.078; under setting [2], 4.02 ± 0.15.
AVATASRLGPYVLLEPEEGGRAYQ [TRIB3] returned a protein stability index under setting [1] of 3.79 ± 0.37 and a protein stability index under setting [2] of 3.71 ± 0.32.
Consider AVDAGDPAVEACENRRKVLYQRAP [TCF25], for which the protein stability index is 4.62 ± 0.21 under setting [1] and 5.02 ± 0.22 under setting [2].
Consider AVETEGSGSRHPPWARGCGMFTFL [SLC2A12], for which the protein stability index reads like this: under setting [1], 2.11 ± 0.16; under setting [2], 2.13 ± 0.28.
In the case of AVQQVQRLPFLSSSNLSLDVLRGN [POMP], the protein stability index is, setting by setting: under setting [1], 2.87 ± 0.24; under setting [2], 2.98 ± 0.35.
AVYFAEADDPTSGFSSIPDAFWWA [KCNA3]: the protein stability index runs as follows: under setting [1], 2 ± 0.16; under setting [2], 2.12 ± 0.24.
On to CCVDVKPISQEKIESERALISQCG [DUSP5], for which the protein stability index by setting is: under setting [1], 3.69 ± 0.26; under setting [2], 3.63 ± 0.22.
As for CEEEVFPLAMNYLDRFLSLEPVKK [CCND1], the protein stability index runs as follows: under setting [1], 3.36 ± 0.16; under setting [2], 3.3 ± 0.28.
For the sequence CEEVKMTVASEAKIQLSDSEAKSH [FAN1], the protein stability index by setting is: under setting [1], 5.46 ± 0.17; under setting [2], 5.47 ± 0.074.
In turn, CEHECVNADGSYLCQCHEGFALNP [MATN2] gave a protein stability index under setting [1] of 4.77 ± 0.15 and a protein stability index under setting [2] of 4.8 ± 0.4.
In the case of CENFPEMATYLRYVRRLDFFEKPD [CSNK1G3], the protein stability index under setting [1] was 2.21 ± 0.25 and the protein stability index under setting [2] amounted to 2.59 ± 0.51.
For CEQCGKCKCGECTAPRTLPSCLAC [SPRY1], the protein stability index reads like this: under setting [1], 4.34 ± 0.2; under setting [2], 4.56 ± 0.22.
Take CFKSVAKTPYDTSRRQEKSAGDAD [ELOA2]: the protein stability index is, setting by setting: under setting [1], 4.96 ± 0.3; under setting [2], 5 ± 0.46.
The like results for CGDGNTETHRAPDLVQWTRHMEAV [SOAT2] were, in that order, 3.55 ± 0.044 and 3.48 ± 0.31.
The like results for CHFQALGCRTTHSNQEVLQSCLLV [PYCR3] were, in that order, 2.8 ± 0.23 and 2.67 ± 0.54.
With CITEDGRTVAVGDIVWGKIHGFPW [PWWP2B], the protein stability index reads like this: under setting [1], 2.49 ± 0.5; under setting [2], 2.28 ± 0.45.
CQYEALVENNRRDVEAWFNTQTEE [KRT36]: the protein stability index is, setting by setting: under setting [1], 2.86 ± 0.39; under setting [2], 2.83 ± 0.35.
Take CRNCINLQNEAQKRESFLKYKCLL [IQUB]: the protein stability index by setting is: under setting [1], 2.08 ± 0.44; under setting [2], 2.22 ± 0.26.
For the sequence CSFCKRAFPSGHLLDAHILEWHDS [ZNF511], the protein stability index is, setting by setting: under setting [1], 5.19 ± 0.093; under setting [2], 5.12 ± 0.24.
As for CSQLLESSYFDSFQEAQIKRKARN [CDKL4], the protein stability index by setting is: under setting [1], 3.51 ± 0.56; under setting [2], 3.528 ± 0.023.
For the sequence CTLGDPNKLPEGVPQPARMPYISD [KLHL20], the protein stability index is, setting by setting: under setting [1], 4.13 ± 0.24; under setting [2], 4.18 ± 0.15.
CTSSWDKNLKIWNVHTGEFRNCGA [WDR88]: the protein stability index reads like this: under setting [1], 2.17 ± 0.42; under setting [2], 2.56 ± 0.31.
The like results for CVRRRYSDFEWLKNELERDSKIVV [SNX12] were, in that order, 2.7 ± 0.17 and 2.62 ± 0.49.
On to DALEDSLEEVAVQQTGDDDEVDDF [PBXIP1], for which the protein stability index reads like this: under setting [1], 5.59 ± 0.28; under setting [2], 5.67 ± 0.15.
In the case of DARQLFVLAGAAEEGFMTAELAGV [GNAI1], the protein stability index was 2.75 ± 0.37 under setting [1] and 2.92 ± 0.31 under setting [2].
DCGLNLKQRGYFFLDERLYCESHA [PDLIM4]: the protein stability index came out at 2.43 ± 0.17 under setting [1] and 2.3 ± 0.44 under setting [2].
As for DCGTIQENWVCLSCYQVYCGRYIN [HDAC6], the protein stability index runs as follows: under setting [1], 2.85 ± 1.1; under setting [2], 2.39 ± 0.63.
For DCLKKFNARRKLKGAILTTMLATR [CAMK2D], in that order: 3.04 ± 0.78 and 3.49 ± 0.37.
As for DDCDDDDDDAQILPSPVQACSEDS [DRICH1], the protein stability index by setting is: under setting [1], 5.48 ± 0.46; under setting [2], 5.62 ± 0.24.
The like results for DDKDALVFVLIDEVESLTAARNAC [TRIP13] were, in that order, 2.21 ± 0.32 and 2.38 ± 0.34.
Turning to DDSVMKATQQARKRNFISSKSKQP [C22orf31], the protein stability index came to 4.87 ± 0.15 under setting [1] and 4.98 ± 0.2 under setting [2].
As to DELALSLGYAASLEASVQDDAGTS [C2CD2L], the protein stability index was found to be 5.34 ± 0.32 under setting [1] and 5.22 ± 0.21 under setting [2].
Turning to DERRQLQHLKSKALRERWLLEGTP [PALM], the protein stability index by setting is: under setting [1], 3.54 ± 0.44; under setting [2], 3.71 ± 0.23.
